{
  "source": "IntAct's records for PubMed 11230129",
  "parents": {"B1": {"name": "CBL-interacting serine/threonine-protein kinase 1 (Arabidopsis thaliana (Mouse-ear cress)), Q8RWC9 (parent)", "chain": "MVRRQEEEKKAEKGMRLGKYELGRTLGEGNFGKVKFAKDTVSGHSFAVKIIDKSRIADLNFSLQIKREIRTLKMLKHPHIVRLHEVLASKTKINMVMELVTGGELFDRIVSNGKLTETDGRKMFQQLIDGISYCHSKGVFHRDLKLENVLLDAKGHIKITDFGLSALPQHFRDDGLLHTTCGSPNYVAPEVLANRGYDGAASDIWSCGVILYVILTGCLPFDDRNLAVLYQKICKGDPPIPRWLSPGARTMIKRMLDPNPVTRITVVGIKASEWFKLEYIPSIPDDDDEEEVDTDDDAFSIQELGSEEGKGSDSPTIINAFQLIGMSSFLDLSGFFEQENVSERRIRFTSNSSAKDLLEKIETAVTEMGFSVQKKHAKLRVKQEERNQKGQVGLSVTAEVFEIKPSLNVVELRKSYGDSCLYRQLYERLLKDVGTSSPEQEIVT"}},
  "data": [
    {"variants_of": "B1", "conditions": "with cnbl2_arath CBL2, Q8LAS7", "values": [
      {"variant": "L332D", "effect of a mutation on the interaction": "disrupting interaction"},
      {"variant": "S327L", "effect of a mutation on the interaction": "decreasing interaction"},
      {"variant": "A320P", "effect of a mutation on the interaction": "disrupting interaction"},
      {"variant": "P315A", "effect of a mutation on the interaction": "decreasing interaction"},
      {"variant": "I324D", "effect of a mutation on the interaction": "decreasing interaction"},
      {"variant": "F335P", "effect of a mutation on the interaction": "disrupting interaction"}
    ]}
  ]
}
